# Test results published in patent US20170080108A1 (DNARX, published 2017).
# T1: CD20 on human Raji B cells (human, UniProt P11836 1-297)
# T1 construct: whole, on cells; The target is presented on Raji cells; also called CD20+ human B lymphoma (Raji) cells; CD-20+ human Raji B cells
# T1 sequence (looked up): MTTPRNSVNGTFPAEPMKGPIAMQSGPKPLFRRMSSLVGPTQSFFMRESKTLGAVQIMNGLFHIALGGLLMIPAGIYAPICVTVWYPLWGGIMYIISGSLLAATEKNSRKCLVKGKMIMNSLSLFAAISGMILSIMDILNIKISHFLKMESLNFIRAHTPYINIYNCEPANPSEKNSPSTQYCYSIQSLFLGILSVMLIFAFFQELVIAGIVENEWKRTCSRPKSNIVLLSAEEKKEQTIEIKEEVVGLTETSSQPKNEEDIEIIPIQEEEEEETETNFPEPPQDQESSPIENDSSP
# Assays:
# [1] = biological target: CD20 on human Raji B cells (human) (UniProt P11836); assay: flow cytometry on Raji cells, anti-human IgG-PE detection
# [2] = biological target: T1, CD20 on human Raji B cells; assay: as above
Molecule,Mean Fluorescence Intensity [1],"fluorescence intensity, fold over background [1] [fold]","fluorescence intensity, fold over background [2] [fold]"
"Rituximab present in mouse serum after injection of a dual cassette, single plasmid Rituximab DNA vector (antibody)",3530,> 10,
"recombinant Rituximab protein (antibody, V domains shown) VH: QVQLQQPGAELVKPGASVKMSCKASGYTFTSYNMHWVKQTPGRGLEWIGAIYPGNGDTSYNQKFKGKATLTADKSSSTAYMQLSSLTSEDSAVYYCARSTYYGGDWYFNVWGAGTTVTVSA VL: QIVLSQSPAILSASPGEKVTMTCRASSSVSYIHWFQQKPGSSPKPWIYATSNLASGVPVRFSGSGSGTSYSLTISRVEAEDAATYYCQQWTSNPPTFGGGTKLEIK",,,> 10
